Source: patent US20090022728A1 (RINAT NEUROSCIENCE, published 2009)
Where two headings read alike, the source gives them in different places.

Key:
[1] = target: T1, Aβ17-40 peptide; experiment: SPR peptide competition, Aβ1-40 on SA chip
T1 peptide: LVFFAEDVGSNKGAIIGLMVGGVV
Method: (§1) To determine the epitope on Aβ polypeptide that is recognized by antibody 9TL, Surface Plasmon Resonance (SPR, Biacore 3000) binding analysis was used. Aβ₁₋₄₀ polypeptide coupled to biotin (Global Peptide Services, CO) was immobilized on a streptavidin-coated chip (SA chip). The binding of Aβ antibodies Fab fragments (at 50 nM) to the immobilized Aβ₁₋₄₀ in the absence or presence of different soluble fragments of the Aβ peptide (at […], from American Peptide Company Inc., CA). Amino acid sequences of Aβ₁₋₄₀, Aβ₁₋₄₂, and Aβ₁₋₄₃ are shown in below in Table 4. The Aβ peptides which displaced binding of antibody 9TL Fab fragment to Aβ₁₋₄₀ were Aβ₂₈₄₀, Aβ₁₋₄₀, Aβ₃₃₋₄₀, and Aβ₁₇₋₄₀, respectively (FIG. 2). Thus, antibody 9TL binds to a C-terminal peptide (33-40) of Aβ₁₋₄₀.

[2] = target: T2, Aβ28-40 peptide; experiment: SPR peptide competition, Aβ1-40 on SA chip
T2 peptide: KGAIIGLMVGGVV
Method: as §1

[3] = target: T3, Aβ33-40 peptide; experiment: SPR peptide competition, Aβ1-40 on SA chip
T3 construct: also called C-terminal peptide (33-40) of Aβ1-40
T3 peptide: GLMVGGVV
Method: as §1

[4] = target: T4, Aβ1-43 peptide; experiment: SPR peptide competition, Aβ1-40 on SA chip
T4 construct: also called 1-43 (WT)
T4 sequence (peptide, as listed by the source): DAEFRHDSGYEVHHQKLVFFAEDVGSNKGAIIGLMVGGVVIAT
Method: as §1

[5] = target: T5, Aβ28-42 peptide; experiment: SPR peptide competition, Aβ1-40 on SA chip
T5 peptide: KGAIIGLMVGGVVIA
Method: as §1

[6] = target: T6, biotinylated Aβ1-40 peptide (biotinylated (N-biotinylated in Example 7)); experiment: SPR, Fab over Aβ1-40 on SA chip; KD=koff/kon
T6 construct: captured on streptavidin (SA) chip; also called Biotinylated Aβ peptide 1-40; Aβ1-40 on SA chip
Method: (§2) Affinities of 9TL Fab fragment and its variants Fab fragments were determined by Surface Plasmon Resonance (SPR) system (BIAcore 3000™, BIAcore, Inc., Piscaway, N.J.). SA chips (streptavidin) were used according to the supplier's instructions. Biotinylated Aβ peptide 1-40 was diluted into HBS-EP (10 mM HEPES pH 7.4, 150 mM NaCl, 3 mM EDTA, 0.005% P20) and injected over the chip at a concentration of 0.005 mg/mL. Using variable flow time across the individual chip channels, two ranges of antigen density were achieved: 10-200 response units (RU) for detailed kinetic studies and 500-600 RU for concentration studies and screening. […] HBS-EP buffer was used as running buffer for all the BIAcore assays. […] The concentrations of the Fab proteins were determined by ELISA and/or SDS-PAGE electrophoresis using a standard Fab of known concentration (determined by amino acid analysis). Kinetic association rates (kₒₙ) and dissociation rates (koff) were obtained simultaneously by fitting the data to a 1:1 Langmuir binding model (Karlsson, R. Roos, H. Fagerstam, L. Petersson, B. (1994). Methods Enzymology 6. 99-110) using the BIAevaluation program. Equilibrium dissociation constant (KD) values were calculated as koff/kₒₙ.
(§3) All amino acid substitutions of the variants shown in Table 3 are described relative to the sequence of 9TL. KD and other kinetic parameters were determined by BIAcore analysis described above with Aβ₁₋₄₀ immobilized on SA chip.
Target sequence in this assay (peptide, as listed by the source): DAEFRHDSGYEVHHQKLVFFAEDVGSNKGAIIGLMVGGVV

[7] = target: T6, biotinylated Aβ1-40 peptide; experiment: SPR, Fab over Aβ1-40 on SA chip
Method: as §2, §3

[8] = target: T6, biotinylated Aβ1-40 peptide; experiment: SPR, Fab over Aβ1-40 on SA chip; Fab fragment; Aβ1-40 immobilized on SA chip
Method: as §2, with “Kinetic association rates (kₒₙ) and dissociation rates (koff) were obtained simultaneously by fitting the data to a 1:1 Langmuir binding model (Karlsson, R. Roos, H. Fagerstam, L. Petersson, B. (1994). Methods Enzymology 6. 99-110) using the BIAevaluation program.” left out
as §3

[9] = target: T6, biotinylated Aβ1-40 peptide; experiment: SPR, Fab over Aβ1-40 on SA chip; remark: listed apart in the source
Method: as §2

B1: 9TL Fab fragment (Fab, V domains shown)
VH: QVQLVQSGAEVKKPGASVKVSCKASGYYTEAYYIHWVRQAPGQGLEWMGRIDPATGNTKYAPRLQDRVTMTRDTSTSTVYMELSSLRSEDTAVYYCASLYSLPVYWGQGTTVTVSS
VL: DVVMTQSPLSLPVTLGQPASISCKSSQSLLYSDAKTYLNWFQQRPGQSPRRLIYQISRLDPGVPDRFSGSGSGTDFTLKISRVEAEDVGVYYCLQGTHYPVLFGQGTRLEIKR
notes: Fab from E. coli with human IgG2 CH1 (P01859) and human kappa constant domain (CAA09181)
binding result [1]: binds
binding result [2]: binds
binding result [3]: binds
binding result [4]: no binding (tested: 10 µM (FIG. 2 legend; text prints 10 pM))
binding result [5]: no binding (tested: 10 µM (FIG. 2 legend; text prints 10 pM))
Kd [6]: 1.13 nM
koff [7]: 0.000359 s⁻¹
kon [8]: 318000 M⁻¹ s⁻¹
Kd [9]: 1.13 nM
koff [9]: 0.000359 s⁻¹
kon [9]: 318000 M⁻¹ s⁻¹
